Key:
Conditions in all cases: glycan lost; control: wild type
[1] = Western blot of cell lysates
[2] = Immunofluorescence co-staining with Golgi marker GRASP65
[3] = Western blot of Ni-NTA-concentrated conditioned medium

B1: R-spondin1 (RSPO1): N137Q (protein)
parent chain: MRLGLCVVALVLSWTHLTISSRGIKGKRQRRISAEGSQACAKGCELCSEVNGCLKCSPKLFILLERNDIRQVGVCLPSCPPGYFDARNPDMNKCIKCKIEHCEACFSHNFCTKCKEGLYLHKGRCYPACPEGSSAANGTMECSSPAQCEMSEWSPWGPCSKKQQLCGFRRGSEERTRRVLHAPVGDHAACSDTKETRRCTVRRVPCPEGQKRRKGGQGRRENANRNLARKESKEAGAGSRRRKGQQQQQQQGTVGPLTSAGPA
- expression_or_secretion [1]: increases
- localisation_or_trafficking [2]: no change
- expression_or_secretion [3]: increases
